Source: patent US20210340238A1, “TGFß1 INHIBITORS AND USE THEREOF” (Scholar Rock, Inc., priority 2018, published 2021)
“Also recorded” adds a separate entry of the source.

Experiments:
MBT2 tumors = experiment: MBT2 syngeneic bladder cancer mouse model, combination with anti-PD-1; format: in vivo; settings: Ab3 10 and 30 mg/kg, Ab2 3 and 10 mg/kg, in combination with anti-PD-1
Excerpt: This is a very aggressive and fast-growing tumor model, and is very difficult to overcome tumor progression with drug treatment.
Treatment with isotype control was used as a control group (data not shown).
Percent tumor growth delay (% TGD) is defined as the increase in the median time to endpoint in a treatment group compared to the untreated control, expressed as a percentage of the median time to endpoint (TTE) of the control:
T=median TTE for treatment

[1] = test system: fibrosis-associated genes (Col1a1, Col3a1, Fn1, Lox, Lox/2, Acta2, Mmp2, Itga11); experiment: Unilateral ureteral obstruction (UUO) model of acute kidney fibrosis, qPCR of fibrosis-associated genes; format: in vivo, mouse; settings: i.p. days −1 and 4, kidney qPCR day 5
Experimental: Inhibition of acute fibrosis by anti-TGFβ1 antibodies was tested in the unilateral ureteral obstruction (UUO) model of acute kidney fibrosis. In this model, fibrosis is induced in male mice by permanent surgical ligation of the left ureter on study day 0.
Kidneys were collected at the end of study, on day 5 after surgery, and RNA was harvested from these tissues. The degree of fibrosis induction was subsequently assessed by quantitative polymerase chain reaction (qPCR) for a panel of fibrosis-associated genes, including Collagen I (Col1a1), Collagen III (Col3a1), Fibronectin 1 (Fn1), Lysyl Oxidase (Lox), Lysyl Oxidase-like 2 (Lox/2), Smooth muscle actin (Acta2), Matrix metalloprotease (Mmp2), and Integrin alpha 11 (Itga11) (Rolfe, Irvine, Grobbelaar, & Linge, 2007) (Tamaki et al., 1994) (Bansal et al., 2017)(Leaf& Duffield, 2016).

proTGFβ1 C4S = proTGFβ1 C4S (Homo sapiens, UniProt P01137, C33S); experiment: HDX-MS determination of binding regions; settings: 1:3 molar ratio of proTGFβ1 to Fab
Chain of proTGFβ1 C4S (P01137 30-390 C33S): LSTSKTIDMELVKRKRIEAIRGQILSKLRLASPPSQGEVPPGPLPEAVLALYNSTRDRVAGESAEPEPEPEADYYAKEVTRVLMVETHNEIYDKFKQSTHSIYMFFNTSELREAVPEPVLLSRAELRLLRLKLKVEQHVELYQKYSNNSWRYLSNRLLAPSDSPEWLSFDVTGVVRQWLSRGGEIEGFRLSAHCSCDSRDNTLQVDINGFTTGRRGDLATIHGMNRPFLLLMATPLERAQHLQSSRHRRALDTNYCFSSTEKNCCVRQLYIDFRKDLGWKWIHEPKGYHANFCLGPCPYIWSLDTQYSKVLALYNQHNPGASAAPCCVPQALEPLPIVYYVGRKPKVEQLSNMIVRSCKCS
Excerpt: Briefly, HDX-MS relies on the exchange of the protein backbone amide hydrogens with deuterium in solution. The backbone amide hydrogens involved in weak hydrogen bonds or located at the surface of the protein may exchange rapidly while those buried in the interior or those involved in stabilizing hydrogen bonds exchange more slowly. Based on the mass difference between hydrogen (1 Da) and deuterium (2 Da), which can be detected for example by mass spectrometry, the H-D exchange can be monitored overtime, Thus, by measuring HDX rates of backbone amide hydrogens, one can obtain information on protein dynamics, conformation and protein-protein interaction such as antibody-antigen-binding.
In HDX-MS, the regions of an antigen that are tightly bound by an antibody are protected from proton exchange, due to protein-protein interaction, while regions that are exposed to solvent can readily undergo proton exchange. Based on this, binding regions within the antigen, which are protected by the specific binding of the antibody, were identified.

Cell-associated proTGFβ1 [2] = experiment: Octet binding, cell average of hGARP and hLRRC33 complexes; design: species or system human; settings: average KD of (E) and (F), read-out: (G) Cell AVRG
Excerpt: Column (A) of the table provides monoclonal antibodies with discrete amino acid sequences. […] Columns (B), (C), (E) and (F) provide affinities of each of the listed antibodies, measured in KD, towards the antigen complex as indicated, respectively. […] Average KD values calculated from (B) and (C) are shown in the corresponding column (D), which collectively represents affinities of the antibodies to ECM- or matrix-associated proTGFβ1 complexes. Similarly, Average KD values calculated from (E) and (F) are shown in the corresponding column (G), which collectively represents affinities of the antibodies to cell-surface or cell-associated proTGF complexes. Finally, relative ratios between the average KD values from columns (D) and (G) are expressed as fold bias” in column (H). Thus, the greater the numerical of column (H) is, the greater bias exists for the particular antibody, when comparing binding preferences of the antibody for matrix-associated complexes to cell-surface complexes. This is one way of quantitatively representing and comparing inherent bias of antibodies to their target complexes. Such analyses may be useful in guiding the selection process for a candidate antibody for particular therapeutic use.

[3] = test system: Matrix-associated proTGFβ1 vs Cell-associated proTGFβ1; experiment: MSD-SET binding, matrix vs cell bias (G/D); design: species or system human; settings: ratio of cell average KD to ECM average KD
Excerpt: (§1) Column (A) of the table provides monoclonal antibodies with discrete amino acid sequences. […] Columns (B), (C), (E) and (F) provide affinities of each of the listed antibodies, measured in KD, towards the antigen complex as indicated, respectively. […] Similarly, Average KD values calculated from (E) and (F) are shown in the corresponding column (G), which collectively represents affinities of the antibodies to cell-surface or cell-associated proTGF complexes. Finally, relative ratios between the average KD values from columns (D) and (G) are expressed as fold bias” in column (H). Thus, the greater the numerical of column (H) is, the greater bias exists for the particular antibody, when comparing binding preferences of the antibody for matrix-associated complexes to cell-surface complexes. This is one way of quantitatively representing and comparing inherent bias of antibodies to their target complexes. Such analyses may be useful in guiding the selection process for a candidate antibody for particular therapeutic use. Select antibodies of the present disclosure, as measured by MSD-SET, show context-bias (i.e., greater than five-fold bias) or unbias (i.e., less than 5-fold bias) toward matrix-associated complexes over cell-associated complexes. […] Without being bound by a particular theory, the differences in the kinetics of the assays and/or differences in the nature of recombinant proteins may account for the noticeable differences seen in Ab19 binding to hGARP complexes observed in the above Octet assay (see Table 6) compared to the below MSD-SET assay (see Table 7 below). For example, the Octet assay measures kinetic on and off rates, while the MSD-SET assay measures binding at equilibrium. In addition, the recombinant antibodies used in the Octet assay were expressed as IgG1 antibodies in yeast, while the antibodies used in the MSD assay were expressed as IgG4 antibodies in mammalian cells.

[4] = test system: liver fibrosis (pSmad2/3, hydroxyproline, type I collagen); settings: CDHFD mice, weeks 4-12
Excerpt: The Choline deficient high fat diet (CDHFD) is an established dietary model of Non-Alcoholic steatohepatitis (NASH). In this model, male C57BL/6J mice are fed a choline deficient, 0.1% Methionine, high fat diet for 12 weeks. Three to six weeks after the start of the CDHFD, expression of α-sma protein (a marker for activation of hepatic stellate cells) increases and the development of hepatic fibrosis is accompanied by an increase in the hydroxyproline content accompanied by a rise in intrahepatic collagen synthesis and deposition (Matsumoto et. al, Int J Exp Pathol. 2013 April; 94(2):93-103).
Animals in the test cohorts were on the CDHFD for the duration of the study. A separate cohort of mice were administered a regular chow diet as a study control. […] Antibody test concentrations were as follows: 15 mg/kg, 5 mg/kg or 1.5 mg/kg twice a week (i.e., 30, 10, or 3 mg/kg/week) for a test duration of 8 weeks (i.e., weeks 4 thru 12). An IgG isotype antibody was used as a negative control at 15 mg/kg twice weekly (30 mg/kg/week). Following 8 weeks of dosing, animals were sacrificed and livers collected for analyses.
Serum measurements were also taken to determine the extent of antibody exposure during the study.
TGFβ1 receptor engagement leads to intracellular signaling events including the phosphorylation of Smad2 and Smad3.
Hydroxyproline is a signature amino acid for fibrillar collagens and comprises approximately 13.5% of the protein. […] Hydroxyproline acts as an important diagnostic indicator of the severity of fibrosis.
To assess the levels of type 1 collagen deposition in livers from CDHFD-treated mice, immunohistochemistry (IHC) protocols were developed for anti-mouse type I collagen antibody (rabbit polyclonal; Abcam; ab21286) using the Leica Bond RX staining system. Mouse liver was collected and fixed in 10% neutral buffered formalin (NBF) for 24 hours at room temperature. Fixed livers were then trimmed into 3-5 mm cross sections and stored in 70% ethanol until processed for paraffin infiltration and embedding. Paraffin embedded livers were sectioned at 4 μm and mounted on slides for IHC staining. Type 1 collagen primary antibody was used at a 5 μg/mL final concentration along with a matched isotype primary control (rabbit monoclonal IgG; Cell Signaling Technologies; 3900S). Epitope retrieval was performed with a pH 6 citrate buffer incubated at 100° C. for 20 minutes. […]
Stained slides were sent to HistoTox Labs for imaging with an Aperio AT2 whole slide scanner and collagen staining was analyzed using Visiopharm image analysis software. […] Total collagen positive area was measured using an intensity-based thresholding algorithm which classified each pixel of the image as high positive, medium positive, low positive, or negative staining area.

Cell-associated proTGFβ1 [5] = experiment: MSD-SET binding, cell average of hGARP and hLRRC33 complexes; design: species or system human; settings: average KD of (E) and (F), read-out: (G) Cell AVRG
Excerpt: as §1

[6] = 4-week rat toxicology study (weekly dosing); format: in vivo
Excerpt: Animals were sacrificed and necropsies performed.

[7] = target: Matrix-associated proTGFβ1; experiment: MSD-SET binding, ECM average of hLTBP1 and hLTBP3 complexes; design: species or system human; settings: average KD of (B) and (C), read-out: (D) ECM AVRG
Excerpt: as §1

[8] = Effective dose and therapeutic window across preclinical models (summary); format: in vivo
Excerpt: Effective amount: An “effective amount” (or therapeutically effective amount, or therapeutic dose) is a dosage, concentration, or dosing regimen that achieves statistically significant clinical benefits (e.g., efficacy) in a patient population.
Therapeutic window: The term “therapeutic window” refers to a range of doses/concentrations that produces therapeutic response without causing significant/observable/unacceptable adverse effect (e.g., within adverse effects that are acceptable or tolerable) in subjects. Therapeutic window may be calculated as a ratio between minimum effective concentrations (MEC) to the minimum toxic concentrations (MTC).

B1: Ab2: isoform-selective inhibitor of TGFβ1 activation; VH SEQ ID NO: 13, VL SEQ ID NO: 15; human IgG4 (antibody, V domains shown)
VH: EVQLLESGGGLVQPGGSLRLSCAASGFTFADYAMTWVRQAPGKGLEWVSAISGSGAATYFADSVKGRFTISRDNSKNTLYLQMNSLRAEDTAVYYCARVSSGHWDFDYWGQGTLVTVSS
VL: DIQLTQSPSSLSASVGDRVTITCRASQSISSYLNWYQQKPGKAPKLLIYAASNLQSGVPSRFSGSGSGTDFTLTISSLQPEDFATYYCQQTYTVPLTFGGGTKVEIK
modifications: human IgG4 constant regions
In the case of B1, the “Tumor growth compared to PD-1 alone” value (MBT2 tumors) is reported as “delayed tumor growth”, the “Fibrosis-associated gene expression in UUO kidney vs UUO+IgG” value ([1]; 3 mg/kg/wk) is reported as “trend towards reduced Col3a1 expression, though this effect does not reach statistical significance; also recorded: reduction of both Fn1 and, particularly, Lox/2 (P=0.06), though suppression of neither gene is statistically significant; also recorded: Col1a1 and Lox expression were also reduced” and the “Fibrosis-associated gene expression in UUO kidney vs UUO+IgG” value ([1]; 10 mg/kg/wk) is reported as “suppressed fibrotic gene induction by UUO; also recorded: highly significant (P<0.005 vs UUO+IgG) inhibition of both Fn1 and Lox/2; also recorded: all genes examined except Mmp2 showed a statistically significant change in expression”. For the same molecule, the “Regions of proTGFβ1 protected from H/D exchange upon Fab binding (binding regions 1, 2, 3)” value (proTGFβ1 C4S) was “LREAVPE; also recorded: WKWIHEPKGYHANFCLG”, the Kd (Cell-associated proTGFβ1 [2]) was 643 pM and the “(H) G/D (fold bias)” value [3] was 8.66 fold. The “Relative ratio of phosphorylated Smad2/3 in liver lysates (ELISA)” value ([4]; 15, 5 or 1.5 mg/kg i.p. twice a week) was “significantly reduced the relative ratio of phosphorylated Smad2/3 compared to IgG control; also recorded: inverse correlation between serum levels of Ab2 and phosphorylated Smad2/3; also recorded: significantly reduces phosphorylation of Smad2/3 as compared to Ab3 and IgG treated mice on CDHFD”, the “Liver fibrosis as measured by hydroxyproline levels” value ([4]; i.p. twice a week, vs IgG control) was “marked reduction in collagen deposition” and the Kd (Cell-associated proTGFβ1 [5]) was 2300 pM. The Test article-related toxicity ([6]; once weekly for 4 weeks up to 100 mg/kg, Fischer 344 or SD rats) was “free of observable toxicities associated with pan-inhibition of TGFβ; also recorded: no observable test article-related toxcity in either rat strain; also recorded: no toxic effects over background”, the MTD ([6]; rats, suggested from NOAEL of four-week toxicology study) was > 100 mg/kg and the NOAEL ([6]; rats, weekly dose for 4 weeks, highest dose tested) was 100 mg/kg. For the same molecule, the Kd [7] was 266 pM and the Effective amount [8] was 3 to 30 mg/kg.
